B1: Protein VAC14 homolog (Homo sapiens), Q08AM6 (parent)
chain: MNPEKDFAPLTPNIVRALNDKLYEKRKVAALEIEKLVREFVAQNNTVQIKHVIQTLSQEFALSQHPHSRKGGLIGLAACSIALGKDSGLYLKELIEPVLTCFNDADSRLRYYACEALYNIVKVARGAVLPHFNVLFDGLSKLAADPDPNVKSGSELLDRLLKDIVTESNKFDLVSFIPLLRERIYSNNQYARQFIISWILVLESVPDINLLDYLPEILDGLFQILGDNGKEIRKMCEVVLGEFLKEIKKNPSSVKFAEMANILVIHCQTTDDLIQLTAMCWMREFIQLAGRVMLPYSSGILTAVLPCLAYDDRKKSIKEVANVCNQSLMKLVTPEDDELDELRPGQRQAEPTPDDALPKQEGTASGGPDGSCDSSFSSGISVFTAASTERAPVTLHLDGIVQVLNCHLSDTAIGMMTRIAVLKWLYHLYIKTPRKMFRHTDSLFPILLQTLSDESDEVILKDLEVLAEIASSPAGQTDDPGPLDGPDLQASHSELQVPTPGRAGLLNTSGTKGLECSPSTPTMNSYFYKFMINLLKRFSSERKLLEVRGPFIIRQLCLLLNAENIFHSMADILLREEDLKFASTMVHALNTILLTSTELFQLRNQLKDLKTLESQNLFCCLYRSWCHNPVTTVSLCFLTQNYRHAYDLIQKFGDLEVTVDFLAEVDKLVQLIECPIFTYLRLQLLDVKNNPYLIKALYGLLMLLPQSSAFQLLSHRLQCVPNPELLQTEDSLKAAPKSQKADSPSIDYAELLQHFEKVQNKHLEVRHQRSGRGDHLDRRVVL
partner: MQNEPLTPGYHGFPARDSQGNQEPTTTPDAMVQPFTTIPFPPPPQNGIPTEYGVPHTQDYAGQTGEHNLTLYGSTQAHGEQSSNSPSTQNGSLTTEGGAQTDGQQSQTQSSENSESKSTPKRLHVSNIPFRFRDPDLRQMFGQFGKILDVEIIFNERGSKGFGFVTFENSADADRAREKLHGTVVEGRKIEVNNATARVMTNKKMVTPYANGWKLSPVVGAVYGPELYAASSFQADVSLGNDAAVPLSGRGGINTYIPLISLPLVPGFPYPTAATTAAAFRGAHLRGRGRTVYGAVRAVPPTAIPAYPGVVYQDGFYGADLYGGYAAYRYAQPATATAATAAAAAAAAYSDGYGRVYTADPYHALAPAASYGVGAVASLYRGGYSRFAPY
B2: Protein VAC14 homolog (Homo sapiens), Q08AM6 (parent)
chain: B1 chain
partner: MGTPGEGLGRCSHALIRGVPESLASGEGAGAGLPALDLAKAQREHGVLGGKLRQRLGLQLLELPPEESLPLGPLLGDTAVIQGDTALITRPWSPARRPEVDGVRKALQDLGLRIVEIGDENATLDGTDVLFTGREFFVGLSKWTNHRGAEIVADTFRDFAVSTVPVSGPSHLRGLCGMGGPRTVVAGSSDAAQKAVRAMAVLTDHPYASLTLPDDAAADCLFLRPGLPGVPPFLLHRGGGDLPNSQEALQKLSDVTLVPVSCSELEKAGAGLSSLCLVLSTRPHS
B3: Protein VAC14 homolog (Homo sapiens), Q08AM6 (parent)
chain: B1 chain
partner: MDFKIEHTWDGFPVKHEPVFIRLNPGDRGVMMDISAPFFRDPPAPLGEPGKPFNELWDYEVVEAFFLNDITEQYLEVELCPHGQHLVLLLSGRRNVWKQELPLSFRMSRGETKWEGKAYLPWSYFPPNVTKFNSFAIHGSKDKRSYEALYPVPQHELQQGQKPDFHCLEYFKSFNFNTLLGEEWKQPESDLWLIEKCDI
B4: Protein VAC14 homolog (Homo sapiens), Q08AM6 (parent)
chain: B1 chain
partner: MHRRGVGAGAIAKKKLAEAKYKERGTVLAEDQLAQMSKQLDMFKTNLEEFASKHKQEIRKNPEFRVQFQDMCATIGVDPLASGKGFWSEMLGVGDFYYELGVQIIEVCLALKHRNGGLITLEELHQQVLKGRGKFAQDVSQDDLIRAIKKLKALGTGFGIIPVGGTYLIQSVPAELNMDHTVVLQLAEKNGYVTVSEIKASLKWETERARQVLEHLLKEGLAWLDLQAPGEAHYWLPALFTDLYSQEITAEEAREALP
B5: Protein VAC14 homolog (Homo sapiens), Q08AM6 (parent)
chain: B1 chain
partner: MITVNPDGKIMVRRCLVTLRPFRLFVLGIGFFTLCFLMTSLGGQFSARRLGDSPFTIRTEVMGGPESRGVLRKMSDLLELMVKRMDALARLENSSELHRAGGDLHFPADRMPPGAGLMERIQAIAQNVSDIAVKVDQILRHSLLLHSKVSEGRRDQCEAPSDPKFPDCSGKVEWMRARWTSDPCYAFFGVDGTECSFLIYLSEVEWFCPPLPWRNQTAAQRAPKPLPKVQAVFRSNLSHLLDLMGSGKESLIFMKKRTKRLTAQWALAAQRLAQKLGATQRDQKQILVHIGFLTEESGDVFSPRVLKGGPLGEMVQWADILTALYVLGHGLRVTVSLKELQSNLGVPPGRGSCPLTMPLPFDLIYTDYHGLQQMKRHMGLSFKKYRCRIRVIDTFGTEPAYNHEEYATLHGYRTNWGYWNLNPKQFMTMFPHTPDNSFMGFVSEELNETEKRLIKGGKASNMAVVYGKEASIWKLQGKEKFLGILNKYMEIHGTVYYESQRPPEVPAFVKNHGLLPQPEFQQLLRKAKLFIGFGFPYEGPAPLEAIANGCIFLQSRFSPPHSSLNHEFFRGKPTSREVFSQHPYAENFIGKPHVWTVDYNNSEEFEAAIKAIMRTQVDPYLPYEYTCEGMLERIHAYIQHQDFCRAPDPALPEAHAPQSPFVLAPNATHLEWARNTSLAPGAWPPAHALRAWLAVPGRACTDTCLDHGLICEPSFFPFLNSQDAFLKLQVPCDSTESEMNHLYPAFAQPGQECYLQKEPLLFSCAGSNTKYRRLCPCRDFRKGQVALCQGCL
B6: Protein VAC14 homolog (Homo sapiens), Q08AM6 (parent)
chain: B1 chain
partner: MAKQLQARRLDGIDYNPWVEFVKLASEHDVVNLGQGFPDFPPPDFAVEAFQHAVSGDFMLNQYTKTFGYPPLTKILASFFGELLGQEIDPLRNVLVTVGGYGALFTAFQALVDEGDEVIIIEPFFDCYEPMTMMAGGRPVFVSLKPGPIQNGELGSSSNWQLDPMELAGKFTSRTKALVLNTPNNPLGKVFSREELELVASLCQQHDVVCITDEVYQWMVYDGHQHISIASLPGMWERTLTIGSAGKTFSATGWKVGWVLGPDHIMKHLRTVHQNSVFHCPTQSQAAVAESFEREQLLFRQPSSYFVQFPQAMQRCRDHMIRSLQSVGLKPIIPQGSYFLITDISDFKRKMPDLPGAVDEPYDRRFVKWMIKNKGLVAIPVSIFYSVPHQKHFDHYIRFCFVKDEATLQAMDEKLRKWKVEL
B7: Protein VAC14 homolog (Homo sapiens), Q08AM6 (parent)
chain: B1 chain
partner: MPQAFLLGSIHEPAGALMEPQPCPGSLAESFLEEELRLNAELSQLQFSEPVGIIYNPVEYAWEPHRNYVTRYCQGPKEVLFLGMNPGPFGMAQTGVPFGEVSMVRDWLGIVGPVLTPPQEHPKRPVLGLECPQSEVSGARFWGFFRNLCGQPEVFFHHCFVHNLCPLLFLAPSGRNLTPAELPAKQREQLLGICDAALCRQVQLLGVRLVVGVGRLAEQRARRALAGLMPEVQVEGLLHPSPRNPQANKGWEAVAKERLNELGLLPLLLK
B8: Protein VAC14 homolog (Homo sapiens), Q08AM6 (parent)
chain: B1 chain
partner: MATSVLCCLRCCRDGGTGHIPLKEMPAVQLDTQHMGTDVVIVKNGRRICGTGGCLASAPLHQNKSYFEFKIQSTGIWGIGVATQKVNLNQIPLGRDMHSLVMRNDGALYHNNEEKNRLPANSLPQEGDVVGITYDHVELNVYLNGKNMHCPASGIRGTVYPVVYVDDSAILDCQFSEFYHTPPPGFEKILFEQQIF
B9: Protein VAC14 homolog (Homo sapiens), Q08AM6 (parent)
chain: B1 chain
partner: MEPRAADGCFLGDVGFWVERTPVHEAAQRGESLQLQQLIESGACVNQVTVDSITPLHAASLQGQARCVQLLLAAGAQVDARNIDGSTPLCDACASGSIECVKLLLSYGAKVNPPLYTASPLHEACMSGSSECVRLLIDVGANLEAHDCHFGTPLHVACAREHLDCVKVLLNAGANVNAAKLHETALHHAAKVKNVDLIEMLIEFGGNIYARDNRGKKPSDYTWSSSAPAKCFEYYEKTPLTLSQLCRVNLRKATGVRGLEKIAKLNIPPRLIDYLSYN

Variants of: B1
Conditions: with rfox2_human RBFOX2, O43251

| Variant | effect of a mutation on the interaction |
| --- | --- |
| A127S | with no effect |

Variants of: B2
Conditions: with ddah2_human DDAH2, O95865

| Variant | effect of a mutation on the interaction |
| --- | --- |
| A127S | with no effect |

Variants of: B3
Conditions: with cd033_human C4orf33, Q8N1A6

| Variant | effect of a mutation on the interaction |
| --- | --- |
| A127S | with no effect |

Variants of: B4
Conditions: with snf8_human SNF8, Q96H20

| Variant | effect of a mutation on the interaction |
| --- | --- |
| A127S | with no effect |

Variants of: B5
Conditions: with mgt5b_human MGAT5B

| Variant | effect of a mutation on the interaction |
| --- | --- |
| A127S | with no effect |

Variants of: B6
Conditions: with kat1_human KYAT1, Q16773

| Variant | effect of a mutation on the interaction |
| --- | --- |
| A127S | with no effect |

Variants of: B7
Conditions: with smug1_human SMUG1, Q53HV7

| Variant | effect of a mutation on the interaction |
| --- | --- |
| A127S | with no effect |

Variants of: B8
Conditions: with spry7_human SPRYD7, Q5W111

| Variant | effect of a mutation on the interaction |
| --- | --- |
| A127S | with no effect |

Variants of: B9
Conditions: with asb13_human ASB13, Q8WXK3

| Variant | effect of a mutation on the interaction |
| --- | --- |
| A127S | with no effect |
